Experimental findings from the supplement of paper PMC10567573 are described below.

The chains are these.
B1: TBX5 (parent)
chain: FHEVGTEMIITKAGRRMFPSYKVK
B2: TMEM175 (parent)
chain: SCTIIFLASIFQLAMWTTALLHQA
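Note: lentivirally expressed fusions sorted by FACS into six bins by GFP to DsRed ratio, PSI derived from sequencing read proportions per bin multiplied by bin number.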

One data set covers variants of B1. The experiment in a line: protein stability index of a GFP-peptide fusion (GPS, HEK-293T) (PSI 1-6); higher = more stable. As to conditions: c terminus: a fixed tail appended.
As for AHEVGTEMIITKAGRRMFPSYKVK, the protein stability index was 3.81.
Still for that read-out and setting: next, DHEVGTEMIITKAGRRMFPSYKVK: 3.1; CHEVGTEMIITKAGRRMFPSYKVK: 2.18.

The next data set covers variants of B2. The data set is described as above. As to conditions: c terminus: a fixed tail appended.
Regarding SCTIIFLHSIFQLAMWTTALLHQA, the protein stability index worked out at 3.28.
For the variant SCTIIFLISIFQLAMWTTALLHQA, the protein stability index was 4.22.
Still for that read-out and setting: next, SCTIIFLNSIFQLAMWTTALLHQA: 4.58.
Same read-out and setting: next, SCTIIFLTSIFQLAMWTTALLHQA: 4.12; SCTIIFLDSIFQLAMWTTALLHQA: 3.72.
In the case of SCTIIFLCSIFQLAMWTTALLHQA, the protein stability index turned out to be 2.98.
Same read-out and setting: next, SCTIIFLLSIFQLAMWTTALLHQA: 3.28.
The same measure, in the same setting: under SCTIIFLYSIFQLAMWTTALLHQA stands 3.74.
Consider SCTINFLASIFQLAMWTTALLHQA, for which the protein stability index stood at 2.28.
Turning to SCTIGFLASIFQLAMWTTALLHQA, the protein stability index amounted to 2.33.
With SCTIMFLASIFQLAMWTTALLHQA, the protein stability index stood at 3.44.
For SCTITFLASIFQLAMWTTALLHQA, the protein stability index worked out at 2.35.
Still for that read-out and setting: under SCTIIFLASMFQLAMWTTALLHQA stands 3.48; under SCTIIFLASRFQLAMWTTALLHQA, 2.81; under SCTIIFLASCFQLAMWTTALLHQA, 1.64.
On the same count and under the same terms, under SCTIIFLASYFQLAMWTTALLHQA stands 3.52; under SCTIIFLASAFQLAMWTTALLHQA, 3.45; under SCTIIFLASDFQLAMWTTALLHQA, 1.94.
With SCTIIFLASIFQLAMWTTALLMQA, the protein stability index worked out at 2.74.
Same read-out and setting: next, SCTIIFLASIFQLAMWTTALLCQA: 3.02; SCTIIFLASIFQLAMWTTALLKQA: 3.44; SCTIIFLASIFQLAMWTTALLAQA: 3.84.
The same measure, in the same setting: under SCTIIFLASIFQLAMWTTALLIQA stands 4.4; under SCTIIFLASIFQLAMWTTALLTQA, 2.65; under SCTIIFEASIFQLAMWTTALLHQA, 2.34.
On the same count and under the same terms, under SCTIIFTASIFQLAMWTTALLHQA stands 3.83.
As to SCTIIFGASIFQLAMWTTALLHQA, the protein stability index is 4.01.
The same measure, in the same setting: under SCTIIFQASIFQLAMWTTALLHQA stands 3.37; under SCTIIFVASIFQLAMWTTALLHQA, 3.55.
On the same count and under the same terms, next, SCTIIFFASIFQLAMWTTALLHQA: 1.87.
Consider SCTIIFSASIFQLAMWTTALLHQA, for which the protein stability index was determined as 2.77.
In the case of SCTIIFRASIFQLAMWTTALLHQA, the protein stability index stood at 3.25.
On the same count and under the same terms, next, SCTIIFKASIFQLAMWTTALLHQA: 2.48.
Consider SCTIIDLASIFQLAMWTTALLHQA, for which the protein stability index was 3.81.
As to SCTIIPLASIFQLAMWTTALLHQA, the protein stability index is 2.59.
As for SCTIINLASIFQLAMWTTALLHQA, the protein stability index came out at 2.86.
Still for that read-out and setting: under SCTIIVLASIFQLAMWTTALLHQA stands 2.74.
As for SCTIIELASIFQLAMWTTALLHQA, the protein stability index is 2.76.
Same read-out and setting: under GCTIIFLASIFQLAMWTTALLHQA stands 2.3; under KCTIIFLASIFQLAMWTTALLHQA, 2.29.
For the variant ACTIIFLASIFQLAMWTTALLHQA, the protein stability index was 2.72.
On to MCTIIFLASIFQLAMWTTALLHQA, for which the protein stability index was 2.14.
On the same count and under the same terms, under DCTIIFLASIFQLAMWTTALLHQA stands 2.62.
The same measure, in the same setting: under YCTIIFLASIFQLAMWTTALLHQA stands 1.75; under HCTIIFLASIFQLAMWTTALLHQA, 2.8; under ICTIIFLASIFQLAMWTTALLHQA, 3.24.
On the same count and under the same terms, next, QCTIIFLASIFQLAMWTTALLHQA: 1.64; LCTIIFLASIFQLAMWTTALLHQA: 2.96.
With SCTIIFLASIFQLAMPTTALLHQA, the protein stability index is 2.53.
Still for that read-out and setting: under SCTIIFLASIFQLAMRTTALLHQA stands 2.51.
With SCTIIFLASIFQLAMITTALLHQA, the protein stability index came out at 3.15.
The same measure, in the same setting: next, SCTIIFLASIFQLAMLTTALLHQA: 2.94; SCTIIFLASIFQLAMMTTALLHQA: 3.11; SCTIIFLASIFQLAMYTTALLHQA: 3.76.
Same read-out and setting: under SCTIIFLASIFQLAMQTTALLHQA stands 1.12.
Still for that read-out and setting: under SCTIIFLASIFQLAMKTTALLHQA stands 2.44; under SITIIFLASIFQLAMWTTALLHQA, 1.73; under SHTIIFLASIFQLAMWTTALLHQA, 3.33.
For SKTIIFLASIFQLAMWTTALLHQA, the protein stability index was determined as 3.34.
For the variant SRTIIFLASIFQLAMWTTALLHQA, the protein stability index turned out to be 2.3.
Still for that read-out and setting: next, SETIIFLASIFQLAMWTTALLHQA: 2.64.
With SFTIIFLASIFQLAMWTTALLHQA, the protein stability index turned out to be 2.66.
Still for that read-out and setting: next, SVTIIFLASIFQLAMWTTALLHQA: 3.64; SATIIFLASIFQLAMWTTALLHQA: 3.34; SYTIIFLASIFQLAMWTTALLHQA: 2.89.
Same read-out and setting: next, SCTIIFLASIFQLAMWTTALLHQW: 3.03.
On to SCTIIFLASIFQLAMWTTALLHQL, for which the protein stability index amounted to 3.17.
Regarding SCTIIFLASIFQLAMWTTALLHQR, the protein stability index turned out to be 2.43.
Take SCTIIFLASIFQLAMWTTALLHQM: the protein stability index was 1.89.
Still for that read-out and setting: next, SCTIIFLASIFQLAMWTTALLHQF: 2.62.
The same measure, in the same setting: under SCTIIFLASIFQLAMWTTALLHQQ stands 2.56; under SCTIIFLASIFQLAMWTTALLHQT, 3.01.
On the same count and under the same terms, next, SCTIIFLASIFQLAMWTTAFLHQA: 2.74; SCTIIFLASIFQLAMWTTAWLHQA: 1.4; SCTIIFLASIFQLAMWTTAQLHQA: 3.1.
For the variant SCTIIFLASIFQLAMWTTAHLHQA, the protein stability index was 3.02.
Same read-out and setting: next, SCTIIFLASIFQLAMWTTANLHQA: 3.09; SCTIIFLASIFQLAMWTTAYLHQA: 3.22.
As to SCTIIFLASIFQLAMWTTASLHQA, the protein stability index was determined as 3.1.
On the same count and under the same terms, next, SCTIIFLASIFQLAMWTTALLHIA: 2.95.
Still for that read-out and setting: next, SCTIIFLASIFQLAMWTTALLHFA: 3.89; SCTIIFLASIFQLAMWTTALLHKA: 3.26.
Same read-out and setting: under SCTIIFLASIFQLAMWTTALLHVA stands 3.24.
With SCTIIFLASIFQLAMWTTALLHMA, the protein stability index turned out to be 3.84.
On the same count and under the same terms, under SCTIIFLASIFQLAMWTTALLHNA stands 4.37.
As for SCTIIFLASIFQLAMWTTALLHTA, the protein stability index is 3.34.
Take SCTIIFLASIFQLAMWTTALLHHA: the protein stability index was found to be 2.71.
On the same count and under the same terms, under SCTNIFLASIFQLAMWTTALLHQA stands 3.
Same read-out and setting: under SCTDIFLASIFQLAMWTTALLHQA stands 3.54; under SCTYIFLASIFQLAMWTTALLHQA, 2.23; under SCTTIFLASIFQLAMWTTALLHQA, 2.72.
